“Also recorded” adds a separate entry of the source.
Legend:
intestinal explants = test: Growth of intestinal explant (sphere) cultures under Wnt modulation; type: cell-based, mouse; details: for explant growth: intestinal explant culture
Description: Small intestine or colon of C57Bl/6J mice is procured under sterile conditions, minced and mixed with type I collagen gel. Subsequently, these explant containing gels are poured onto transwell cell culture inserts with a collagen gel layer. Transwell cell culture inserts are available commercially from a number if resources e.g. Corning, Signaaldrich. These cell culture inserts are placed into secondary outer dishes containing HAMs F-12 with 20% FCS. Proliferation and histology of the explant is depicted in FIG. 4A-4D. Electron micrographs of the intestinal explants in FIG. 5A-5E reveal that the ultrastructure of the intestinal epithelium is preserved.
Before preparing the tissue, an inner container with a gel as bottom layer was made. The procedure described herein used Cellmatrix type I-A (Nitta Gelatin Inc.) e.g. collagen gel. The inner dish has permeable membrane bottom. Millicell culture plate inserts (Millicell-CM, Millipore Co.) or Falcon cell culture inserts (BD Co.) was used as the inner dish. 1 ml of collagen gel solution was poured into a 30-mm diameter inner dish in combination with 60 mm diameter outer dish and 2 ml of culture media. 0.3 ml collagen gel solution was poured into 10-mm diameter inner dish in combination with a 24-well outer dish and 0.5 ml of culture media.
Small or large intestine was removed from mouse (fetus, neonate, juvenile, or adult) aseptically. The removed tissue was immediately immersed in ice-cold PBS or other culture media/tissue preservative solution such as Ham's F12, MEM, etc. The small intestine or colon are opened lengthwise and washed in ice-cold PBS to remove all luminal contents. The washed tissue was minced with scissors to a size less than about 0.1 mm^3. The minced tissue was mixed in ice-cold collagen gel solution and poured onto the prepared inner dish. The inner dish was placed in an outer dish. The gel was solidified at 37° C. for 30 min. After solidification of the gel, culture media was poured into outer dish. Ham's F12 supplemented with 20% fetal calf serum and 50 μg/ml gentamicin was used as culture medium. The culture can be sustained for over a year at 37° C. in a humidified atmosphere of 5% CO2 in air. Medium was changed about every 7 days.
Three-Dimensional Explant Culture System. The mouse small and large intestine (optimally postnatal days 0-2) was opened lengthwise and washed in PBS to remove all luminal contents. A 1 cm segment was minced immediately and extensively on ice with iris scissors. The minced tissues were embedded in a three-dimensional collagen gel using a double-dish culture system. A 1 ml collagen gel solution (Nitta Gelatin Co.) was poured into a 30-mm dish (Millicell-CM, Millipore Co.), the inner dish, with a nitrocellulose bottom to form an acellular layer. Next, a 1 ml collagen gel solution containing a total of 0.1 g minced tissues was placed on the acellular layer in the dish. This inner dish was placed into a 90-mm outer dish containing 10 ml Ham's F12 supplemented with 20% FCS and 50 μg/ml gentamicin. The culture assembly was carried out for 7-365 days at 37 C in a humidified atmosphere of 5% CO2 in air, and the medium was changed every 7 days. Where appropriate, murine RSpo1-Fc, Dkk1 or DBZ (Calbiochem) were included in the outer dish medium at 500 ng/ml, 0.5-50 μg/ml and 10 μM respectively with change of medium every 1-2 days.
This culture system maintains the cultured cells embedded in the collagen gel under an air-liquid interface environment. Before preparing the tissue, an inner dish with collagen gel bottom layer should be made. The following procedure is done using Cellmatrix type I-A (Nitta Gelatin Inc.) as a premixed type I collagen gel, however, other products are able to use as an extracellular matrix, such as matrigel. The inner dish should have permeable and/or pored membrane bottom, such as a cell culture insert. […]

[1] = system: intestinal epithelial proliferation; details: cited from earlier work

B1: RSpo1: secreted glycoprotein, Wnt agonist, Genbank Accession NP_001033722 (protein, UniProt Q2MKA7 21-263, looked up)
R-spondin-1: SRGIKGKRQRRISAEGSQACAKGCELCSEVNGCLKCSPKLFILLERNDIRQVGVCLPSCPPGYFDARNPDMNKCIKCKIEHCEACFSHNFCTKCKEGLYLHKGRCYPACPEGSSAANGTMECSSPAQCEMSEWSPWGPCSKKQQLCGFRRGSEERTRRVLHAPVGDHAACSDTKETRRCTVRRVPCPEGQKRRKGGQGRRENANRNLARKESKEAGAGSRRRKGQQQQQQQGTVGPLTSAGPA
explant growth (intestinal explants): stimulation; also recorded: markedly stimulated; also recorded: increased growth | explant growth (intestinal explants; listed as R-Spondin1): promoted | intestinal proliferation in vivo [1]: strongly augments intestinal proliferation in vivo; also recorded: strongly induce intestinal proliferation in vivo

B2: Dkk1: Wnt inhibitor; murine Dkk1 bearing N-terminal HA-tag and C-terminal FLAG and 6×His tags (protein, UniProt O54908 32-272, looked up)
Dickkopf-related protein 1: TLNSVLINSNAIKNLPPPLGGAGGQPGSAVSVAPGVLYEGGNKYQTLDNYQPYPCAEDEECGSDEYCSSPSRGAAGVGGVQICLACRKRRKRCMRHAMCCPGNYCKNGICMPSDHSHFPRGEIEESIIENLGNDHNAAAGDGYPRRTTLTSKIYHTKGQEGSVCLRSSDCAAGLCCARHFWSKICKPVLKEGQVCTKHKRKGSHGLEIFQRCYCGEGLACRIQKDHHQASNSSRLHTCQRH
modifications: N-terminal HA tag, C-terminal FLAG and 6xHis tags
notes: murine Dkk1 bearing N-terminal HA-tag and C-terminal FLAG and 6×His tags
effect on epithelial layer of pre-established spheres (intestinal explants; d28 pre-established small or large intestine spheres, treated additional 5d): rapid degeneration of the epithelial layer | explant growth (intestinal explants): inhibited; also recorded: strong inhibition of explant growth | long-term regrowth after transient treatment (intestinal explants; jejunal explants, 50 μg/ml for 7 days, then 35d without Dkk1): lack of long-term repopulation; also recorded: sufficient to ablate culture growth; also recorded: No growth of intestinal spheres was observed | growth when added to culture media at the time of plating (intestinal explants; recombinant protein at plating): dose-dependent growth inhibition | intestinal proliferation in vivo [1]: rapid cessation of intestinal epithelial proliferation and crypt loss
